# [ ]: non-standard residue; d: D form.
# T1: DET1-DET2-spacer-ek-src SH2 (human src SH2 domain fusion protein) (human)
# T1 construct: In the assay it was captured on Protein-G Sepharose through MAB178.1; also called cloned human Src SH2 domain
# T1 chain: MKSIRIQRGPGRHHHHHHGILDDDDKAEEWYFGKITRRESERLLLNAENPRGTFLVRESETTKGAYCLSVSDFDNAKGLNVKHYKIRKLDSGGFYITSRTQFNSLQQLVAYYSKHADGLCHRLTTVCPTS
# B1: (S)-alpha-(acetylamino)-1,3-dihydro-3-hydroxy-1-oxo-5-isobenzofuranpropanamido-glutamate-glutamate-isoleucine-glutamate-amine (peptide)
# peptide: Ac-[(S)‑2‑amino‑3‑(1,3-dihydro-3-hydroxy-1-oxo-isobenzofuran-5-yl)propanoic acid]EEIE-NH2
# notes: Synthetic modified pentapeptide; also called Compound 1
# Molecular target: T1, DET1-DET2-spacer-ek-src SH2 (human src …)
# Experiment: ELISA-based filter plate competition assay; SH2 fusion captured by MAB178.1, displacement of 0.1 uM biotinylated pY peptide (SEQ ID NO: 13)
binder,measurement,value
B1,IC50,250 nM
